Consider one molecule from patent publication US20110142812A1 (STC UNM, published 2011).

Experiment [1] deals with T1, mouse FcγRI on macrophages (mouse, UniProt P26151 25-404).
T1 construct: whole, on cells; The receptor is assigned by using macrophages from knockout mice; Other receptors may be present on these cells; also called FcγRI on mouse macrophages (from FcγRIIb-/- mice)
T1 sequence (looked up): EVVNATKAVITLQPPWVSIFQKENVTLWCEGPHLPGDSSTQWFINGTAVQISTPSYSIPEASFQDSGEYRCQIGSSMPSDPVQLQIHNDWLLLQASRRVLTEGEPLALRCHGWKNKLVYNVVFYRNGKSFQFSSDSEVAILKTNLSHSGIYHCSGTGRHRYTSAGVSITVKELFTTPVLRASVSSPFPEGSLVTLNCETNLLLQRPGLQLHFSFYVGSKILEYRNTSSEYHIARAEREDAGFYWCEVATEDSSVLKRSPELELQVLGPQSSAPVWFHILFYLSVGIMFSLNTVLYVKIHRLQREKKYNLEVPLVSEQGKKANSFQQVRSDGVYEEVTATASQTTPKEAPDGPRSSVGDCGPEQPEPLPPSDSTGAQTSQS
Put plainly: two-color flow cytometry on mouse peritoneal macrophages (FcγRIIb-/-), FITC-2C10 detection. On the technique in general: A flow cytometer gives signals particle by particle.

The target of experiment [2] is T2, human FcγRI (human, UniProt P12314 16-292, limits assumed).
T2 construct: also called CD64
T2 sequence (P12314 16-292 limits assumed): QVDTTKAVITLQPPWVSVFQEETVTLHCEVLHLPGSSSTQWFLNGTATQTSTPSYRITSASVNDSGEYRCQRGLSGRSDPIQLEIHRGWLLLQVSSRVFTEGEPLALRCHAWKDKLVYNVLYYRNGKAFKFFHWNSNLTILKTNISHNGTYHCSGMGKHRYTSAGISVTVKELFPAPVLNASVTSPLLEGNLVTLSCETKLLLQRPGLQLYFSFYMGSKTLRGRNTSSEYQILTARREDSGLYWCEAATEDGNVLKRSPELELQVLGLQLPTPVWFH
The experiment is described as follows: surface plasmon resonance, human FcγR.

B1: Y175L CRP (recombinant mutant C-reactive protein in which tyrosine 175 is replaced by leucine) (ligand)
chain: QTDMSRKAFVFPKESDTSYVSLKAPLTKPLKAFTVCLHFYTELSSTRGYSIFSYATKRQDNEILIFWSKDIGYSFTVGGSEILFEVPEVTVAPVHICTSWESASGIVEFWVDGKPRVRKSLKKGYTVGAEASIILGQEQDSFGGNFEGSQSLVGDIGNVNMWDFVLSPDEINTILLGGPFSPNVLNWRALKYEVQGEVFTKPQLWP
notes: also called CRP mutant Y175L; recombinant mutant CRP (Y175L)
On to B1, for which the binding result in experiment [1] and in experiment [2] was “binds” throughout.
